Test results: the supplement of paper PMC9112550, “Optimization of the antimicrobial peptide Bac7 by deep mutational scanning” (BMC Biology, 2022)

Test system: Escherichia coli TOP10
Test: shrunken log2 fold change of peptide-encoding DNA abundance (4.5 h post-induction vs induction); higher = less antimicrobial activity (less host growth inhibition)
Conditions: time post-induction: 4.5 h; library: site-saturation at positions 5, 18, 19, 20
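Also: peptides expressed intracellularly from a pBAD plasmid library in pooled LB shake-flask culture, induced with 0.3% L-arabinose, DNA abundance read by NGS, three biological replicates, DESeq2 with apeglm shrinkage.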

| Sequence | shrunken log2 fold change |
| --- | --- |
| RRIRDRPPRLPRPRPRPISLPRP | -0.0081 |
| RRIRKRPPRLPRPRPRPKACPRP | -0.00804 |
| RRIRMRPPRLPRPRPRPMCAPRP | 1.57 |
| RRIRARPPRLPRPRPRPNWGPRP | -0.267 |
| RRIRIRPPRLPRPRPRPSKKPRP | -0.229 |
| RRIRARPPRLPRPRPRPGVKPRP | 0.0545 |
| RRIRWRPPRLPRPRPRPRHYPRP | 0.00846 |
| RRIRIRPPRLPRPRPRPYFKPRP | -0.511 |
| RRIRDRPPRLPRPRPRPGIKPRP | -0.165 |
| RRIRDRPPRLPRPRPRPGIVPRP | 0.0969 |
| RRIRTRPPRLPRPRPRPNHNPRP | -0.914 |
| RRIRCRPPRLPRPRPRPKWGPRP | 0.496 |
| RRIRRRPPRLPRPRPRPELIPRP | 0.0314 |
| RRIRLRPPRLPRPRPRPQHRPRP | -0.0199 |
| RRIRKRPPRLPRPRPRPLHNPRP | 0.0882 |
| RRIRQRPPRLPRPRPRPQSRPRP | 0.00465 |
| RRIRWRPPRLPRPRPRPMNGPRP | -0.131 |
| RRIRVRPPRLPRPRPRPRGQPRP | 0.131 |
| RRIRTRPPRLPRPRPRPGVHPRP | -0.055 |
| RRIRDRPPRLPRPRPRPYQNPRP | -0.288 |
| RRIRHRPPRLPRPRPRPHEQPRP | -0.0118 |
| RRIRYRPPRLPRPRPRPRMFPRP | -0.306 |
| RRIRCRPPRLPRPRPRPKQGPRP | 0.261 |
| RRIRSRPPRLPRPRPRPGTPPRP | 0.0374 |
| RRIRNRPPRLPRPRPRPRAGPRP | 0.25 |

| Sequence | shrunken log2 fold change |
| --- | --- |
| RRIRNRPPRLPRPRPRPMGCPRP | -0.187 |
| RRIRHRPPRLPRPRPRPQGCPRP | -0.0592 |
| RRIRFRPPRLPRPRPRPNQGPRP | -0.197 |
| RRIRGRPPRLPRPRPRPAVWPRP | 0.71 |
| RRIRARPPRLPRPRPRPKFWPRP | 0.696 |
| RRIRGRPPRLPRPRPRPNAAPRP | 2.21 |
| RRIRSRPPRLPRPRPRPGHAPRP | 0.205 |
| RRIRSRPPRLPRPRPRPFYMPRP | -0.561 |
| RRIRPRPPRLPRPRPRPHDKPRP | -0.271 |
| RRIRMRPPRLPRPRPRPYLMPRP | -0.357 |
| RRIRWRPPRLPRPRPRPQHSPRP | -0.186 |
| RRIRDRPPRLPRPRPRPVNRPRP | -0.131 |
| RRIRIRPPRLPRPRPRPFKYPRP | -0.0899 |
| RRIRERPPRLPRPRPRPTGFPRP | -0.00436 |
| RRIRIRPPRLPRPRPRPRIIPRP | -0.199 |
| RRIRDRPPRLPRPRPRPSTMPRP | 0.0367 |
| RRIRHRPPRLPRPRPRPHGQPRP | 0.0111 |
| RRIRIRPPRLPRPRPRPMGWPRP | 0.237 |
| RRIRIRPPRLPRPRPRPACAPRP | -0.149 |
| RRIRWRPPRLPRPRPRPRHKPRP | -0.0379 |
| RRIRERPPRLPRPRPRPSHLPRP | -0.188 |
| RRIRRRPPRLPRPRPRPNDWPRP | 0.24 |
| RRIRTRPPRLPRPRPRPGPAPRP | 0.35 |
| RRIRLRPPRLPRPRPRPCKMPRP | -0.503 |
| RRIRWRPPRLPRPRPRPHSYPRP | -0.0789 |

| Sequence | shrunken log2 fold change |
| --- | --- |
| RRIRSRPPRLPRPRPRPPIQPRP | 0.0395 |
| RRIRERPPRLPRPRPRPDHTPRP | -0.0309 |
| RRIRLRPPRLPRPRPRPQMAPRP | -0.0634 |
| RRIRSRPPRLPRPRPRPPNWPRP | 0.504 |
| RRIRCRPPRLPRPRPRPNHGPRP | -0.746 |
| RRIRWRPPRLPRPRPRPQVEPRP | -0.00667 |
| RRIRGRPPRLPRPRPRPSWAPRP | 0.532 |
| RRIRARPPRLPRPRPRPKEHPRP | 0.217 |
| RRIRKRPPRLPRPRPRPSYHPRP | 2.31 |
| RRIRYRPPRLPRPRPRPSNHPRP | -0.29 |
| RRIRWRPPRLPRPRPRPCFGPRP | -0.119 |
| RRIRNRPPRLPRPRPRPNYWPRP | -0.694 |
| RRIRPRPPRLPRPRPRPDMPPRP | -0.302 |
| RRIRMRPPRLPRPRPRPMIQPRP | 0.00725 |
| RRIRQRPPRLPRPRPRPHMLPRP | -1.18 |
| RRIRLRPPRLPRPRPRPTQYPRP | -0.696 |
| RRIRLRPPRLPRPRPRPYQCPRP | -0.373 |
| RRIRRRPPRLPRPRPRPDLEPRP | 0.0267 |
| RRIRRRPPRLPRPRPRPVIPPRP | 0.272 |
| RRIRERPPRLPRPRPRPRTMPRP | -0.135 |
| RRIRSRPPRLPRPRPRPMYPPRP | -0.124 |
| RRIRGRPPRLPRPRPRPIGLPRP | 0.19 |
| RRIRSRPPRLPRPRPRPWWRPRP | -0.0239 |
| RRIRDRPPRLPRPRPRPSMAPRP | 0.202 |
| RRIRGRPPRLPRPRPRPNYSPRP | -0.371 |
